Among the data in patent publication US20230265199A1 are Kd values, retold here.

B1: Trap Z (Human, "full" extracellular domain NRP1-His, VEGF165-Low, E319K/D320K mutations) (receptor)
chain: FRNDKCGDTIKIESPGYLTSPGYPHSYHPSEKCEWLIQAPDPYQRIMINFNPHFDLEDRDCKYDYVEVFDGENENGHFRGKFCGKIAPPPVVSSGPFLFIKFVSDYETHGAGFSIRYELFKRGPECSQNYTTPSGVIKSPGFPEKYPNSLECTYIVFAPKMSEIILEFESFDLEPDSNPPGGMFCRYDRLEIWDGFPDVGPHIGRYCGQKTPGRIRSSSGILSMVFYTDSAIAKEGFSANYSVLQSSVSEDFKCMEALGMESGEIHSDQITASSQYSTNWSAERSRLNYPENGWTPGKKSYREWIQVDLGLLRFVTAVGTQGAISKETKKKYYVKTYKIDVSSNGEDWITIKEGNKPVLFQGNTNPTDVVVAVFPKPLITRFVRIKPATWETGISMRFEVYGCKITDYPCSGMLGMVSGLISDSQITSSNQGDRNWMPENIRLVTSRSGWALPPAPHSYINEWLQIDLGEEKIVRGIIIQGGKHRENKVFMRKFKIGYSNNGSDWKMIMDDSKRKAKSFEGNNNYDTPELRTFPALSTRFIRIYPERATHGGLGLRMELLGCEVEAPTAGPTTPNGNLVDECDDDQANCHSGTGDDFQLTGGTTVLATEKPTVIDSTIQSEFPTYGFNCEFGWGSHKTFCHWEHDNHVQLKWSVLTSKTGPIQDHTGDGNFIYSQADENQKGKVARLVSPVVYSQNSAHCMTFWYHMSGSHVGTLRVKLRYQKPEEYDQLVWMAIGHQGDHWKEGRVLLHKSLKLYQVIFEGEIGKGNLGGIAVDDISINNHISQEDCAKPADLDKKNPEIKIDETGSTPGYEGEGEGDKNISRKPGNVLKTLDPRSGSKENLYFQGHHHHHH
B2: Trap AC (Human, "full" extracellular domain NRP1-His-VEGF-low, D320K mutation) (receptor)
chain: B1 chain with K298E
B3: Trap R (Human, NRP1-His-Δc-VEGF low) (receptor)
chain: B1 chain with Y276A, K298E, K299D
B4: Trap M (Human, NRP1-His-Δb2c-short) (receptor)
chain: FRNDKCGDTIKIESPGYLTSPGYPHSYHPSEKCEWLIQAPDPYQRIMINFNPHFDLEDRDCKYDYVEVFDGENENGHFRGKFCGKIAPPPVVSSGPFLFIKFVSDYETHGAGFSIRYELFKRGPECSQNYTTPSGVIKSPGFPEKYPNSLECTYIVFAPKMSEIILEFESFDLEPDSNPPGGMFCRYDRLEIWDGFPDVGPHIGRYCGQKTPGRIRSSSGILSMVFYTDSAIAKEGFSANYSVLQSSVSEDFKCMEALGMESGEIHSDQITASSQYSTNWSAERSRLNYPENGWTPGEDSYREWIQVDLGLLRFVTAVGTQGAISKETKKKYYVKTYKIDVSSNGEDWITIKEGNKPVLFQGNTNPTDVVVAVFPKPLITRFVRIKPATWETGISMRFEVYGCRSGSKENLYFQGHHHHHH

Positions count from the first letter of the chain named. Names may count otherwise.

The assay concerns the target Recombinant human SEMA3A Fc chimera (R&D Systems) (human) (UniProt Q14563). Put plainly: plate saturation binding; trap coated, SEMA3A-FC titrated, HRP anti-human IgG chemiluminescence, non-linear fit.
“Trap O (Human, NRP1-His-Δc-short) (from UniProt O14786 22-583) (receptor)”: the Kd is 1.05 nM.

For “Trap G (Human, "full" extracellular domain NRP1-His) (from UniProt O14786 22-856) (receptor)”, the Kd stood at 0.8 nM. Take B1: the equilibrium dissociation constant (Kd) is 4.44 nM.

In the case of B2, the dissociation constant (Kd) was 4 nM. B3: the Kd worked out at 6.15 nM.

As for B4, the equilibrium dissociation constant (Kd) amounted to 0.95 nM.
